According to IntAct's records for PubMed 19236849:

B1: NAD-dependent protein deacetylase sirtuin-1 (Homo sapiens), Q96EB6 (parent)
chain: MADEAALALQPGGSPSAAGADREAASSPAGEPLRKRPRRDGPGLERSPGEPGGAAPEREVPAAARGCPGAAAAALWREAEAEAAAAGGEQEAQATAAAGEGDNGPGLQGPSREPPLADNLYDEDDDDEGEEEEEAAAAAIGYRDNLLFGDEIITNGFHSCESDEEDRASHASSSDWTPRPRIGPYTFVQQHLMIGTDPRTILKDLLPETIPPPELDDMTLWQIVINILSEPPKRKKRKDINTIEDAVKLLQECKKIIVLTGAGVSVSCGIPDFRSRDGIYARLAVDFPDLPDPQAMFDIEYFRKDPRPFFKFAKEIYPGQFQPSLCHKFIALSDKEGKLLRNYTQNIDTLEQVAGIQRIIQCHGSFATASCLICKYKVDCEAVRGDIFNQVVPRCPRCPADEPLAIMKPEIVFFGENLPEQFHRAMKYDKDEVDLLIVIGSSLKVRPVALIPSSIPHEVPQILINREPLPHLHFDVELLGDCDVIINELCHRLGGEYAKLCCNPVKLSEITEKPPRTQKELAYLSELPPTPLHVSEDSSSPERTSPPDSSVIVTLLDQAAKSNDDLDVSESKGCMEEKPQEVQTSRNVESIAEQMENPDLKNVGSSTGEKNERTSVAGTVRKCWPNRVAKEQISRRLDGNQYLFLPPNRYIFHGAEVYSDSEDDVLSSSSCGSNSDSGTCQSPSLEEPMEDESEIEEFYNGLEDEPDVPERAGGAGFGTDGDDQEAINEAISVKQEVTDMNYPSNKS

Variants of: B1
Settings: with csk21_human CSNK2A1, P68400
csk21_human CSNK2A1, P68400, sequence (P68400 whole entry, looked up): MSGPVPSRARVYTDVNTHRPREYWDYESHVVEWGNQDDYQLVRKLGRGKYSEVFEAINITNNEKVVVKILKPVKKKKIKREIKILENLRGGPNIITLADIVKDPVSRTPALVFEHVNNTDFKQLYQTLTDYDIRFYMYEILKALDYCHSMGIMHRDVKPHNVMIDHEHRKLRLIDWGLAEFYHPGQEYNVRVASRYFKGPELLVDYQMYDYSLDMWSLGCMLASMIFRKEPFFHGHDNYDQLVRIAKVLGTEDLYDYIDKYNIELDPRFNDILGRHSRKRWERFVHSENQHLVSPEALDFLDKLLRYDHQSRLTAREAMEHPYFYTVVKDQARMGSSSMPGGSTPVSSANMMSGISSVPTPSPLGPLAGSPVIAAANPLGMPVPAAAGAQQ

Variant	effect of a mutation on the interaction
S659A;S661A	decreasing interaction
